B1: CCP domains 19-20 of human Factor H (domain or fragment)
chain: GKCGPPPPIDNGDITSFPLSVYAPASSVEYQCQNLYQLEGNKRITCRNGQWSEPPKCLHPCVISREIMENYNIALRWTAKQKLYSRTGESVEFVCKRGYRLSSRSHTLRTTCWDGKLEYPTCAKR
B2: C-terminal domain of the Staphylococcus aureus immune evasion protein Efb (domain or fragment)
chain: TDATIKKEQKLIQAQNLVREFEKTHTVSAHRKAQKAVNLVSFEYKVKKMVLQERIDNVLKQGLV

Columns and labels:
[1] = target: T1, Human C3b, site-specifically biotinylated at its thioester cysteine (human, UniProt P01024 23-667; P01024 749-1663); assay: SPR
T1 sequence (P01024 23-667, chain 1 of 2): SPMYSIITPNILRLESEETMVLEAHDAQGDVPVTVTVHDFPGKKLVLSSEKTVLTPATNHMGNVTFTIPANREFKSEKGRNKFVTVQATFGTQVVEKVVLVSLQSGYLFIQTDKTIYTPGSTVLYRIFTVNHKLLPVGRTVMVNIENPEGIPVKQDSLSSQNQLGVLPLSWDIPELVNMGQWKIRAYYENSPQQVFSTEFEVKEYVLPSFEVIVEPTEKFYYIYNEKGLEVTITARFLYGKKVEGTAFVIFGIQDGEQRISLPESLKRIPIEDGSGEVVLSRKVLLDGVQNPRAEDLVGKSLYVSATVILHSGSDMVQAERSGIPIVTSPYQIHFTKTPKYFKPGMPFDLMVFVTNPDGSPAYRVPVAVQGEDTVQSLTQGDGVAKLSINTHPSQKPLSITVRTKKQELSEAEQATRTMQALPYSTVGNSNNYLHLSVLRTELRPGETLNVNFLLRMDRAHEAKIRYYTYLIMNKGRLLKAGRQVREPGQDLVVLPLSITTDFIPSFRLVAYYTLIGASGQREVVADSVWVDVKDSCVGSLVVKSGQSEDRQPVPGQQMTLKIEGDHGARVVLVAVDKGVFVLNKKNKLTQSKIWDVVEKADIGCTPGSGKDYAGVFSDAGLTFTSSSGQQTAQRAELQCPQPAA
T1 sequence (P01024 749-1663, chain 2 of 2): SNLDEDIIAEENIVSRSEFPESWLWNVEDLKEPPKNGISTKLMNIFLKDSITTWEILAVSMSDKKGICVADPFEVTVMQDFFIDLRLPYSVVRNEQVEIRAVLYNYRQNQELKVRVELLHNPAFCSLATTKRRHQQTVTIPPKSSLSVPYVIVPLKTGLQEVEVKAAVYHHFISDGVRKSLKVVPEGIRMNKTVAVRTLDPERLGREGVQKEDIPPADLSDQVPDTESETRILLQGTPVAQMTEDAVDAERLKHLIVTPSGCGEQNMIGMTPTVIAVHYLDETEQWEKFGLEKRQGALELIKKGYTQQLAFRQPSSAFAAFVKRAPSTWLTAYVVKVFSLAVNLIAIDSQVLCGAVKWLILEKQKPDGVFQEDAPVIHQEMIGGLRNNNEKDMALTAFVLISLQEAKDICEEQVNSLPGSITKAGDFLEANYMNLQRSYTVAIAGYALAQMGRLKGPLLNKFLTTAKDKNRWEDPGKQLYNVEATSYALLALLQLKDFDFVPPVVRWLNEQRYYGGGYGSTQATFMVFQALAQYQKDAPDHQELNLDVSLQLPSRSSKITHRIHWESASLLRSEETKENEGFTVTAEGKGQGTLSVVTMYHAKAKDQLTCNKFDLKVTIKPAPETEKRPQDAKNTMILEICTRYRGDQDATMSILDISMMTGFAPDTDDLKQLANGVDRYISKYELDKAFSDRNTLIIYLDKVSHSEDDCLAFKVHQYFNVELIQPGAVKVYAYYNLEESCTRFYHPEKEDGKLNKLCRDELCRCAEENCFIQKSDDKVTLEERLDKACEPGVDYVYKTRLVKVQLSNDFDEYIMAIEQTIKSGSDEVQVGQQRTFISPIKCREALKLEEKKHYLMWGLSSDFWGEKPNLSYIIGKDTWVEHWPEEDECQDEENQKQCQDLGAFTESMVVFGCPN

[2] = target: T1, Human C3b, site-specifically …; assay: SPR; remark: listed apart in the source

| Binder | binding result [1] | Kd [2] [nM] | half-life of the complex [2] [h] | koff [2] [s⁻¹] |
| --- | --- | --- | --- | --- |
| B1 | binds | – | – | – |
| B2 | – | 0.11 | ~1 | 0.000187 |

Reference: publication PMC9842190 (Seminars in immunology, 2022)
